Values of other authors, collected in patent US7338947B2, “Cyclic derivatives as modulators of chemokine receptor activity” (Bristol-Myers Squibb Co., priority 2003, dated 2008).

System: MCP-1 expression in peripheral blood mononuclear cells
Conditions: human multiple sclerosis, effective therapy

B1: interferon b-1b: interferon b-1b, effective therapy in human multiple sclerosis (protein, UniProt P01574 22-187, looked up, variant C17S)
Interferon beta: MSYNLLGFLQRSSNFQSQKLLWQLNGRLEYCLKDRMNFDIPEEIKQLQQFQKEDAALTIYEMLQNIFAIFRQDSSSTGWNETIVENLLANVYHQINHLKTVLEEKLEKEDFTRGKLMSSLHLKRYYGRILHYLKAKEYSHCAWTIVRVEILRNFYFINRLTGYLRN
modifications: interferon beta-1b
For B1, the “MCP-1 expression in peripheral blood mononuclear cells” value is given as “reduces MCP-1 expression”.
